# Measured values reported in patent US20140087995A1 (published 2014).
# Numbered stars: 1 amine (or outer) side, 2 acyl side, 3 side chain; on linkers, the order of the positions; unused ones are H or OH. Bridge positions count the residues as written; N and C are the ends. Side chains are listed from the residue outwards. Ends that are not written are not given here. * marks the point of attachment. C20 diacid = O=C(O)CCCCCCCCCCCCCCCCCCC(=O)*; γGlu = O=C(O)[C@H](CCC(=O)[*:2])N[*:1]
# T1: human calcitonin receptor (human, UniProt P30988 25-474)
# T1 construct: whole, on cells; also called hCTR; hCT
# T1 sequence (looked up): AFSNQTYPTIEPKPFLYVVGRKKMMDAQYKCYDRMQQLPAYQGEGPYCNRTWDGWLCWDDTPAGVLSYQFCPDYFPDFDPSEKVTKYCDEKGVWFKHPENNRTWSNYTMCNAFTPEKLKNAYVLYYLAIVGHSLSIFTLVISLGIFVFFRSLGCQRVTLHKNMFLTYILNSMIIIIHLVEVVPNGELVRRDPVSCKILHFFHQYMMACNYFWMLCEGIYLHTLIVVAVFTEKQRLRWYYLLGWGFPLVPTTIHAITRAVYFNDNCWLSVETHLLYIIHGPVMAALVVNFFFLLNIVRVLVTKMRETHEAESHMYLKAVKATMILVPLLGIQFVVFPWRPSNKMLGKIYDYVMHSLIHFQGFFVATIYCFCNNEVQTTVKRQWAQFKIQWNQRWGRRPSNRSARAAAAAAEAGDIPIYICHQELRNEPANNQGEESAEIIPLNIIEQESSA
# How the values were obtained:
# [1] = target: T1, human calcitonin receptor; assay: SPA radioligand competition (125I-calcitonin), membranes of BHK cells with human calcitonin receptor
# How it was run: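 BHK hCTR membranes 35 ng/μL + SPA beads 0.05 mg/well; buffer 50 mM Hepes pH 7.4, 1 mM CaCl2, 5 mM MgCl₂, 0.1% OA, 0.02% Tween20. 120 min, 25° C., shaking. Scintillation count; IC50 by one-site binding competition.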
# [2] = target: T1, human calcitonin receptor; assay: ratio of IC50 at human calcitonin receptor to IC50 at human amylin receptor (SPA competition assays)
# How it was run: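 Scintillation proximity competition binding on cell membranes at 35 ng/μL with SPA beads, in 50 mM Hepes pH 7.4, 1 mM CaCl2, 5 mM MgCl₂, 0.1% OA, 0.02% Tween20. Incubated 120 min at 25° C with shaking. IC₅₀ from one-site competition fit.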
Binder,IC50 [1] [nM],Ratio hCT/hAmylin binding [2]
"K([γGlu-C20 diacid])CNTATCATQRLANFLRHSSPNFGAIPSSTNVGRNTY-NH2 (disulfide 2-7; N-terminus assumed; SMILES CC[C@H](C)[C@H](NC(=O)[C@H](C)NC(=O)CNC(=O)[C@H](Cc1ccccc1)NC(=O)[C@H](CC(N)=O)NC(=O)[C@@H]1CCCN1C(=O)[C@H](CO)NC(=O)[C@H](CO)NC(=O)[C@H](Cc1c[nH]cn1)NC(=O)[C@H](CCCNC(=N)N)NC(=O)[C@H](CC(C)C)NC(=O)[C@H](Cc1ccccc1)NC(=O)[C@H](CC(N)=O)NC(=O)[C@H](C)NC(=O)[C@H](CC(C)C)NC(=O)[C@H](CCCNC(=N)N)NC(=O)[C@H](CCC(N)=O)NC(=O)[C@@H](NC(=O)[C@H](C)NC(=O)[C@@H]1CSSC[C@H](NC(=O)[C@@H](N)CCCCNC(=O)CC[C@H](NC(=O)CCCCCCCCCCCCCCCCCCC(=O)O)C(=O)O)C(=O)N[C@@H](CC(N)=O)C(=O)N[C@@H]([C@@H](C)O)C(=O)N[C@@H](C)C(=O)N[C@@H]([C@@H](C)O)C(=O)N1)[C@@H](C)O)C(=O)N1CCC[C@H]1C(=O)N[C@@H](CO)C(=O)N[C@@H](CO)C(=O)N[C@H](C(=O)N[C@@H](CC(N)=O)C(=O)N[C@H](C(=O)NCC(=O)N[C@@H](CCCNC(=N)N)C(=O)N[C@@H](CC(N)=O)C(=O)N[C@H](C(=O)N[C@@H](Cc1ccc(O)cc1)C(N)=O)[C@@H](C)O)C(C)C)[C@@H](C)O, also called compound 79) [N^ε1-[(4S)-4-carboxy-4-(19-carboxynonadecanoylamino)butanoyl]-[Arg17,Pro21,Pro27,Arg34]-h-amylin]",36.4,46.1
K([γGlu-C20 diacid])CNTATCATQRLAEFLRHSSPNFGAIPSSTNVGPRTY-NH2 (disulfide 2-7; N-terminus assumed; SMILES CC[C@H](C)[C@H](NC(=O)[C@H](C)NC(=O)CNC(=O)[C@H](Cc1ccccc1)NC(=O)[C@H](CC(N)=O)NC(=O)[C@@H]1CCCN1C(=O)[C@H](CO)NC(=O)[C@H](CO)NC(=O)[C@H](Cc1c[nH]cn1)NC(=O)[C@H](CCCNC(=N)N)NC(=O)[C@H](CC(C)C)NC(=O)[C@H](Cc1ccccc1)NC(=O)[C@H](CCC(=O)O)NC(=O)[C@H](C)NC(=O)[C@H](CC(C)C)NC(=O)[C@H](CCCNC(=N)N)NC(=O)[C@H](CCC(N)=O)NC(=O)[C@@H](NC(=O)[C@H](C)NC(=O)[C@@H]1CSSC[C@H](NC(=O)[C@@H](N)CCCCNC(=O)CC[C@H](NC(=O)CCCCCCCCCCCCCCCCCCC(=O)O)C(=O)O)C(=O)N[C@@H](CC(N)=O)C(=O)N[C@@H]([C@@H](C)O)C(=O)N[C@@H](C)C(=O)N[C@@H]([C@@H](C)O)C(=O)N1)[C@@H](C)O)C(=O)N1CCC[C@H]1C(=O)N[C@@H](CO)C(=O)N[C@@H](CO)C(=O)N[C@H](C(=O)N[C@@H](CC(N)=O)C(=O)N[C@H](C(=O)NCC(=O)N1CCC[C@H]1C(=O)N[C@@H](CCCNC(=N)N)C(=O)N[C@H](C(=O)N[C@@H](Cc1ccc(O)cc1)C(N)=O)[C@@H](C)O)C(C)C)[C@@H](C)O),6.3,38.6
"K([γGlu-C20 diacid])CNTATCATQRLAHFLRHSSPNFGAIPSSTNVGHNTY-NH2 (disulfide 2-7; N-terminus assumed; SMILES CC[C@H](C)[C@H](NC(=O)[C@H](C)NC(=O)CNC(=O)[C@H](Cc1ccccc1)NC(=O)[C@H](CC(N)=O)NC(=O)[C@@H]1CCCN1C(=O)[C@H](CO)NC(=O)[C@H](CO)NC(=O)[C@H](Cc1c[nH]cn1)NC(=O)[C@H](CCCNC(=N)N)NC(=O)[C@H](CC(C)C)NC(=O)[C@H](Cc1ccccc1)NC(=O)[C@H](Cc1c[nH]cn1)NC(=O)[C@H](C)NC(=O)[C@H](CC(C)C)NC(=O)[C@H](CCCNC(=N)N)NC(=O)[C@H](CCC(N)=O)NC(=O)[C@@H](NC(=O)[C@H](C)NC(=O)[C@@H]1CSSC[C@H](NC(=O)[C@@H](N)CCCCNC(=O)CC[C@H](NC(=O)CCCCCCCCCCCCCCCCCCC(=O)O)C(=O)O)C(=O)N[C@@H](CC(N)=O)C(=O)N[C@@H]([C@@H](C)O)C(=O)N[C@@H](C)C(=O)N[C@@H]([C@@H](C)O)C(=O)N1)[C@@H](C)O)C(=O)N1CCC[C@H]1C(=O)N[C@@H](CO)C(=O)N[C@@H](CO)C(=O)N[C@H](C(=O)N[C@@H](CC(N)=O)C(=O)N[C@H](C(=O)NCC(=O)N[C@@H](Cc1c[nH]cn1)C(=O)N[C@@H](CC(N)=O)C(=O)N[C@H](C(=O)N[C@@H](Cc1ccc(O)cc1)C(N)=O)[C@@H](C)O)C(C)C)[C@@H](C)O, also called compound 81)",23.6,87.2
K([γGlu-C20 diacid])CNTATCATQRLAEFLRHSSPNFGAIPSSTNVGPHTY-NH2 (disulfide 2-7),3.8,21.2
K([γGlu-C20 diacid])CNTATCATQRLAEFLRHSSPNFGAIPSSTNVGPETY-NH2 (disulfide 2-7; N-terminus assumed; SMILES CC[C@H](C)[C@H](NC(=O)[C@H](C)NC(=O)CNC(=O)[C@H](Cc1ccccc1)NC(=O)[C@H](CC(N)=O)NC(=O)[C@@H]1CCCN1C(=O)[C@H](CO)NC(=O)[C@H](CO)NC(=O)[C@H](Cc1c[nH]cn1)NC(=O)[C@H](CCCNC(=N)N)NC(=O)[C@H](CC(C)C)NC(=O)[C@H](Cc1ccccc1)NC(=O)[C@H](CCC(=O)O)NC(=O)[C@H](C)NC(=O)[C@H](CC(C)C)NC(=O)[C@H](CCCNC(=N)N)NC(=O)[C@H](CCC(N)=O)NC(=O)[C@@H](NC(=O)[C@H](C)NC(=O)[C@@H]1CSSC[C@H](NC(=O)[C@@H](N)CCCCNC(=O)CC[C@H](NC(=O)CCCCCCCCCCCCCCCCCCC(=O)O)C(=O)O)C(=O)N[C@@H](CC(N)=O)C(=O)N[C@@H]([C@@H](C)O)C(=O)N[C@@H](C)C(=O)N[C@@H]([C@@H](C)O)C(=O)N1)[C@@H](C)O)C(=O)N1CCC[C@H]1C(=O)N[C@@H](CO)C(=O)N[C@@H](CO)C(=O)N[C@H](C(=O)N[C@@H](CC(N)=O)C(=O)N[C@H](C(=O)NCC(=O)N1CCC[C@H]1C(=O)N[C@@H](CCC(=O)O)C(=O)N[C@H](C(=O)N[C@@H](Cc1ccc(O)cc1)C(N)=O)[C@@H](C)O)C(C)C)[C@@H](C)O),1.86,13.3

# Further lines, results first:
IC50 [1] [nM],Ratio hCT/hAmylin binding [2],Binder
6.62,28.5,K([γGlu-C20 diacid])CNTATCATQRLAEFLRHSSPNFGAIPSSTNVGRETY-NH2 (disulfide 2-7; N-terminus assumed; SMILES CC[C@H](C)[C@H](NC(=O)[C@H](C)NC(=O)CNC(=O)[C@H](Cc1ccccc1)NC(=O)[C@H](CC(N)=O)NC(=O)[C@@H]1CCCN1C(=O)[C@H](CO)NC(=O)[C@H](CO)NC(=O)[C@H](Cc1c[nH]cn1)NC(=O)[C@H](CCCNC(=N)N)NC(=O)[C@H](CC(C)C)NC(=O)[C@H](Cc1ccccc1)NC(=O)[C@H](CCC(=O)O)NC(=O)[C@H](C)NC(=O)[C@H](CC(C)C)NC(=O)[C@H](CCCNC(=N)N)NC(=O)[C@H](CCC(N)=O)NC(=O)[C@@H](NC(=O)[C@H](C)NC(=O)[C@@H]1CSSC[C@H](NC(=O)[C@@H](N)CCCCNC(=O)CC[C@H](NC(=O)CCCCCCCCCCCCCCCCCCC(=O)O)C(=O)O)C(=O)N[C@@H](CC(N)=O)C(=O)N[C@@H]([C@@H](C)O)C(=O)N[C@@H](C)C(=O)N[C@@H]([C@@H](C)O)C(=O)N1)[C@@H](C)O)C(=O)N1CCC[C@H]1C(=O)N[C@@H](CO)C(=O)N[C@@H](CO)C(=O)N[C@H](C(=O)N[C@@H](CC(N)=O)C(=O)N[C@H](C(=O)NCC(=O)N[C@@H](CCCNC(=N)N)C(=O)N[C@@H](CCC(=O)O)C(=O)N[C@H](C(=O)N[C@@H](Cc1ccc(O)cc1)C(N)=O)[C@@H](C)O)C(C)C)[C@@H](C)O)
80.4,91.8,"K([γGlu-C20 diacid])CNTATCATQRLAHFLRHSSPNFGAIPSSTNVGRNTY-NH2 (disulfide 2-7; N-terminus assumed; SMILES CC[C@H](C)[C@H](NC(=O)[C@H](C)NC(=O)CNC(=O)[C@H](Cc1ccccc1)NC(=O)[C@H](CC(N)=O)NC(=O)[C@@H]1CCCN1C(=O)[C@H](CO)NC(=O)[C@H](CO)NC(=O)[C@H](Cc1c[nH]cn1)NC(=O)[C@H](CCCNC(=N)N)NC(=O)[C@H](CC(C)C)NC(=O)[C@H](Cc1ccccc1)NC(=O)[C@H](Cc1c[nH]cn1)NC(=O)[C@H](C)NC(=O)[C@H](CC(C)C)NC(=O)[C@H](CCCNC(=N)N)NC(=O)[C@H](CCC(N)=O)NC(=O)[C@@H](NC(=O)[C@H](C)NC(=O)[C@@H]1CSSC[C@H](NC(=O)[C@@H](N)CCCCNC(=O)CC[C@H](NC(=O)CCCCCCCCCCCCCCCCCCC(=O)O)C(=O)O)C(=O)N[C@@H](CC(N)=O)C(=O)N[C@@H]([C@@H](C)O)C(=O)N[C@@H](C)C(=O)N[C@@H]([C@@H](C)O)C(=O)N1)[C@@H](C)O)C(=O)N1CCC[C@H]1C(=O)N[C@@H](CO)C(=O)N[C@@H](CO)C(=O)N[C@H](C(=O)N[C@@H](CC(N)=O)C(=O)N[C@H](C(=O)NCC(=O)N[C@@H](CCCNC(=N)N)C(=O)N[C@@H](CC(N)=O)C(=O)N[C@H](C(=O)N[C@@H](Cc1ccc(O)cc1)C(N)=O)[C@@H](C)O)C(C)C)[C@@H](C)O, also called compound 85)"
